Tests used:
[1] = biological target: C-terminal domain of Clostridium perfringens enterotoxin (cCpE), tagless (Clostridium perfringens, UniProt P01558)
[2] = biological target: T1, mouse claudin-4, biotinylated (mmCLDN-4-Biotin) (mouse, UniProt O35054 1-210); experiment: BLI
T1 sequence: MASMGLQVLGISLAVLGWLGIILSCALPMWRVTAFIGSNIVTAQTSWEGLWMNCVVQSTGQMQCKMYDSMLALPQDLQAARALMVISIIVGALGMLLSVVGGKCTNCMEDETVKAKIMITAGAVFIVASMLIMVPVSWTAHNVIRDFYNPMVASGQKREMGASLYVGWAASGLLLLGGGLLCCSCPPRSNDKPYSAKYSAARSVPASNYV

[3] = biological target: T2, human claudin-9, biotinylated (hsCLDN-9-Biotin) (human, UniProt O95484); experiment: BLI
T2 sequence: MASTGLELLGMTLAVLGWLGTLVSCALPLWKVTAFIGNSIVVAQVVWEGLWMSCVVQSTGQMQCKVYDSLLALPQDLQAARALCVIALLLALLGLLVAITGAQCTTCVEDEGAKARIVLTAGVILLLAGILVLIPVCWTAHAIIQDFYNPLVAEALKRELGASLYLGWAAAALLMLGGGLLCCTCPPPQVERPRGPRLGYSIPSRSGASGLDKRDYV

[4] = biological target: T3, human claudin-4, biotinylated (hsCLDN-4-Biotin) (human, UniProt O14493 1-209); experiment: BLI
T3 sequence: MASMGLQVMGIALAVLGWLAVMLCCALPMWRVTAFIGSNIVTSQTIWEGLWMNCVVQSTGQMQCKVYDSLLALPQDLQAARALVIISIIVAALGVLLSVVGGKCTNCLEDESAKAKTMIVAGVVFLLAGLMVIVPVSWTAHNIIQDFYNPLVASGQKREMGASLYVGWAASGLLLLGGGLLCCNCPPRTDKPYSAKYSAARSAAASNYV

B1: COP-3 (antibody, V domains shown)
VH: EVQLVESGGGLVQPGGSLRLSCAASGFNFYSSSIHWVRQAPGKGLEWVAYISSYSGYTYYADSVKGRFTISADTSKNTAYLQMNSLRAEDTAVYYCARGYGYFDYNFSVGYALDYWGQGTLVTVSS
VL: DIQMTQSPSSLSASVGDRVTITCRASQSVSSAVAWYQQKPGKAPKLLIYSASSLYSGVPSRFSGSRSGTDFTLTISSLQPEDFATYYCQQSHPWYYPITFGQGTKVEIK
[1]
  binding result: binds

B2: cCpE-His10 (domain or fragment)
chain: STDIEKEILDLAAATERLNLTDALNSNPAGNLYDWRSSNSYPWTQKLNLHLTITATGQKYRILASKIVDFNIYSNNFNNLVKLEQSLGDGVKDHYVDISLDAGQYVLVMKANSSYSGNYPYSILFQKF
[2]
  Kd: < 12 nM
[3]
  Kd: < 12 nM
[4]
  Kd: < 12 nM

From paper doi:10.1101/2023.06.12.544689 (bioRxiv, 2023)
